{"source": "patent KR20140095558A", "about": "(dated 2014)", "data": [{"target": "T1, BSA (bovine serum albumin) (bovine (송아지 혈청 알부민), UniProt P02769 25-607)", "T1 construct": "Negative control antigen of the phage ELISA; also called 송아지 혈청 알부민", "T1 sequence (P02769 25-607 limits assumed)": "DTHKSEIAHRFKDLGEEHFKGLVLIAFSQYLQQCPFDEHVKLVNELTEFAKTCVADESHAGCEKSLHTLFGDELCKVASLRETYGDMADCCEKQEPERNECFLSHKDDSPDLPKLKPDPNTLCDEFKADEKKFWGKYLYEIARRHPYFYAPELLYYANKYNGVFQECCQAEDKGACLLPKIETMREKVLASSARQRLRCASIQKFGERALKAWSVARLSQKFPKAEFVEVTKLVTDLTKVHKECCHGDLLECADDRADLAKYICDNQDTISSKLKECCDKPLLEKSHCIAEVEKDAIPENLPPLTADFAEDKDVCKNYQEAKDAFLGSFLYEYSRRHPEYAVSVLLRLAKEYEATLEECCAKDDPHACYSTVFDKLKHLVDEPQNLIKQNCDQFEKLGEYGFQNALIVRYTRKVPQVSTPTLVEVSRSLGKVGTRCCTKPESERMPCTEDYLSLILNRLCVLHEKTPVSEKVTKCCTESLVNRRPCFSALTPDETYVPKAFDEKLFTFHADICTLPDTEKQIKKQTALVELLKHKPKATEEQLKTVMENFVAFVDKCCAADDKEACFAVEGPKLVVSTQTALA", "test": "phage ELISA, 1% BSA coated, anti-M13 peroxidase, OD 492 nm", "values": [{"binder": "SC06-071 (scFv) scFv: EVQLVESGGGVVQPGRSLRLSCAASGFTFSSYGMHWVRQAPGKGLEWVAMIWSDGSNKYYADSVKGRFTISRDNSKNTLYLQMNSLRVEDTAVYYCASNYGSGSYWGGFDYWGQGTLVTVSSGTGGSGGTGSGTGGSTQSALTQPASVSGSPGQSITISCTGTSSDVGGYNLVSWYQQHPGKAPKLMIYEGSKRPSGVSNRFFGSKSGDTASLTISGLQAEDEADYYCSSYTTSSTHVFGTGTKVTVL", "binding result": "no binding"}, {"binder": "SC06-191 (scFv) scFv: EVQLVESGGGVVQPGRSLRLSCVASEFTFSNYGMHWVRQAPGKGLEWVAVIWYDGSNEDYADSVKGRFTISRDNSKNTVYLHMNSLRAEDTAVYFCTRGQYSSTWFLDYWGQGTLVTVSSGTGGSGGTGSGTGGSTDIQLTQSPSTLSASVGDRVTITCRASQSISSWLAWYQQKPGKAPKLLIYKASSLETGVPSRFSGSGSGTDFTLTISSLQPEDFATYYCQQANSFPLTFGGGTKVDIK", "binding result": "no binding"}, {"binder": "SC06-198 (scFv) scFv: QLQLQESGPGLVKPSETLSLTCAVSGYSITSGYYWGWVRQPPGKGLEWIGSIYHTGSTYYNPSLKSRVTISVDTSKNQFSLKLNSLTAADTAVYFCASQSPAFDFWGQGTMVTVSSGTGGSGGTGSGTGGSTQSVLTQPPSVSGAPGQRVTISCTGSSSNIGTGYDVHWYQQLPGTAPKLLIYGNNNRPSGVPDRFSGSKSGTSASLAITGLQAEDEADYYCATWDDSLNGWVFGGGTKLTVP", "binding result": "no binding"}, {"binder": "SC06-242 (scFv) scFv: EVQLVESGPGLVKPSETLSLTCTVSGGSISSYYWSWIRQPPGKGLEWIGYIYYTGTTNYNPSLNSRVTISADTSKNQFSLKLSSVTAADTAVYYCARGGQTAGVWGKGTTVTVSSGTGGSGGTGSGTGGSTQSVLTQPPSVSVAPGQTARITCGGYNIGRKSVHWYQQKPGLAPVLVVYDNSDRPSGIPARFSGSNSGNTATLTISGTQAMDEADYYCQAWDRGTAVFGTGTKVTVL", "binding result": "no binding"}, {"binder": "SC06-079 (scFv) scFv: EVQLVESGGGLVQPGGSLRLSCAASGFTFSSYAMSWVRQAPGKGLEWVSAISGTGGSAYYADSVKGRFTISRDNSKNTVYLQMNSLRAEDTAVYYCAKGHSSGTNWGQGTLVTVSSGTGGSGGTGSGTGGSTSYVLTQPPSASGTPGQRVTISCSGSSSNIGSNFVYWYQQLPGTAPKLLIYRNNQRPSGVPDRFSGSKSGTSASLAISGLRSEDEADYYCAAWDDSLSGVLFGGGTQLTVL", "binding result": "no binding"}, {"binder": "SC06-092 (scFv) scFv: EVQLVESGGGLVQPGRSLRLSCTGSGFTFGDYAMSWFRQAPGKGLEWVGFIRNKAYGGTAEYAASVKDRFIISRDDSKSIAYLQMNSLKTEDTAVYYCVRREYDTGWLDYWGQGTLVTVSSGTGGSGGTGSGTGGSTQSALTQPPSASGSPGQSVTISCTGTSSDVGGYNYVSWYQRHPGKAPKLMIYDVTDRPSGVSNRFSGSKSGNTASLTISGLQAEDEADYYCSSYTSSSTSAVFGGGTKLTVL", "binding result": "no binding"}, {"binder": "SC06-089 (scFv) scFv: EVQLVETGGGLVQPGGSLRLSCAASGFTFSSYSMNWVRQAPGKGLEWVSFISSSSSTIYYADSVKGRFTIARDNAKNSLYLQMNSLRDEDTAVYYCARPVGTGISLFHAFDIWGQGTMVTVSSGTGGSGGTGSGTGGSTQSVLTQPPSVSVAPGQTARITCGGNNIGSKYVHWYQQKPGQAPVLVVYDDSDRPSGIPERFSGSNSGNTATLTISRVEAGDEADFYCQVWDGSSDPVVFGGGTKLTVL", "binding result": "no binding"}, {"binder": "SC06-252 (scFv) scFv: EVQLVETGGGLVQPGGSLRLSCAASGLTFSSYAMSWVRQAPGKGLEWVSALSGSTTFYADSVKGRFTISRDNAKNTLYLQMNSLRAEDTAVYYCARGNYYGMDVWGQGTTVTVSSGTGGSGGTGSGTGGSTSYVLTQPPSASGTPGQRVTISCSGSSSNIGKFYVYWYQQFPGAAPKLLIYSNNQRPSGVPDRFSGSKSGTSASLAISGLQSEDEADYYCAAWDGSLNGYVFGTGTKVTVL", "binding result": "no binding"}, {"binder": "SC06-087 (scFv) scFv: EVQLVESGGGLVKPGGSLRLSCAASGFTFSSNSMNWVRQAPGKGLEWVSFISSSSTYIYYADSVKGRFTISRDNAKNSLYLQMNSLRAEDTAVYYCARESAAGISYDAFDIWGQGTMVTVSSGTGGSGGTGSGTGGSTQSALTQPASVSGSPGQSITISCTGTSSDVGGYKYVSWYQQHPGKAPKLMIYEVSNRPSGVSNRFSGSKSGSTASLTISGLQAEDEADYYCSSYTSSSTLGVFGTGTKVTVL", "binding result": "no binding"}, {"binder": "SC06-241 (scFv) scFv: EVQLVESGGGLVQPGRSLRLSCAASGFTFRSYAMYWVRQAPGKGLEWLALISHDASKMFYADSVKGRFTISRDNSKNTLSLQMNSLTIEDTAVYYCVRERTGYYGAYWGQGTLVTVSSGTGGSGGTGSGTGGSTDIQMTQSPSSLSASVGDRVTLTCRASQGIGTWLAWYQQKPGKAPKLLIYSASSLQSGVPSRFSGSGSGTDFTLSISNLQPEDFATYYCQQANSFPITFGQGTRLEIK", "binding result": "no binding"}, {"binder": "SC06-077 (scFv) scFv: QVQLVQSGAEVKKPGSSVKVSCKASGGTFSSYAISWVRQAPGQGLEWMGGIIPIFGTANYAQKFQGRVTITADESTSTAYMELSSLRSEDTAVYYCAREGGVGPAFDIWGQGTMVTVSSGTGGSGGTGSGTGGSTDIQMTQSPDSLAVSLGERATINCKSSQSVLHNSNNKNYLAWYQQKPGQPPKLLIYWASTRESGVPDRFSGSGSGTDFTLTISSLQAEDVAVYYCQQYYGSPYTFGQGTKLEIK", "binding result": "no binding"}, {"binder": "SC06-078 (scFv) scFv: EVQLVESGAEVKKPGSSVKVSCKASGGTFSSYAISWVRQAPGQGLEWMGGIIPIFGTANYAQKFQGKVTITADESTSTAYMELSSLRSEDTAVYYCARLSPRYYGMDVWGQGTTVTVSSGTGGSGGTGSGTGGSTQSALTQPRSVSGSPGQSVTISCTGTSSDVGGYNYVSWYQQHPGKAPKLMIYGGSERPSGVSNRFSGSKSGNTASLTISGVQAEDEADYYCSSYTSSGTLLFGGGTQLTVL", "binding result": "no binding"}, {"binder": "SC05-159 (scFv) scFv: QVQLVQSGAEVKKPGATVKISCKVSGYTFTDYYMHWVQQAPGKGLEWMGLVDPEDGETIYAEKFQGRVTITADTSTDTAYMELSSLRSDDTAVYYCARAEVMTTINNWYFDLWGRGTLVTVSSGTGGSGGTGSGTGGSTSYVLTQPPSASGTPGQRVTISCSGSSSNIGSNNVSWYQQLPGTAPKLLIYSNNQRPSGVPDRFSGSKSGTSASLAISGLQSEDEADYYCAAWDDSLNGWVFGGGTKLTVL", "binding result": "no binding"}, {"binder": "SC05-157 (scFv) scFv: EVQLVESGAEVKKPGESLKISCKGSGYSFTNYWIGWVRQMPGKGLEWMGIVYPGDSDTRYSPSFQGQVTISADKSISTAYLQWSSLKASDTAVYYCARRMAVAGSDAFDIWGQGTMVTVSSGTGGSGGTGSGTGGSTQAVLTQPSSASGTPGQTVTISCSGSTSNIGSHNVNWYQHLPGTAPKLLIYINNKRPSGVPDRFSGSKSGSSASLAISGLQSEDEADYYCAAWDDSLRRPVFGGGTQLTVL", "binding result": "no binding"}, {"binder": "SC06-246 (scFv) scFv: EVQLVESGGGLIQPGGSLRLSCAASGFTVSSDFMTWVRQAPGRGLEWVSLIYSGGKTNYADSVKGRFTISRDNSRNTLYLQMNSLRAEDTAVYYCARSVCSTISCSKLDDWGQGTLVTVSSGTGGSGGTGSGTGGSTQAVLTQPSSVSVAPGQTARITCGGNNIGRKSVHWYQQKPGLAPVLVVNDNSDRPSGIPARFSGSNSGNTATLTISRVEAGDEADYYCHVWGSSRDHYVFGTGTKVTVL", "binding result": "no binding"}]}]}
